Data taken from publication PMC10958042.

B1: ATGL (PNPLA2, patatin-like phospholipase domain-containing protein 2), human, full length / G0S2 (G0/G1 switch protein 2), human (parent)
chain 1: MFPREKTWNISFAGCGFLGVYYVGVASCLREHAPFLVANATHIYGASAGALTATALVTGVCLGEAGAKFIEVSKEARKRFLGPLHPSFNLVKIIRSFLLKVLPADSHEHASGRLGISLTRVSDGENVIISHFNSKDELIQANVCSGFIPVYCGLIPPSLQGVRYVDGGISDNLPLYELKNTITVSPFSGESDICPQDSSTNIHELRVTNTSIQFNLRNLYRLSKALFPPEPLVLREMCKQGYRDGLRFLQRNGLLNRPNPLLALPPARPHGPEDKDQAVESAQAEDYSQLPGEDHILEHLPARLNEALLEACVEPTDLLTTLSNMLPVRLATAMMVPYTLPLESALSFTIRLLEWLPDVPEDIRWMKEQTGSICQYLVMRAKRKLGRHLPSRLPEQVELRRVQSLPSVPLSCAAYREALPGWMRNNLSLGDALAKWEECQRQLLLGLFCTNVAFPPEALRMRAPADPAPAPADPASPQHQLAGPAPLLSTPAPEARPVIGALGL
chain 2: METVQELIPLAKEMMAQKRKGKMVKLYVLGSVLALFGVVLGLMETVCSPFTAARRLRDQEAAVAELQAALERQALQKQALQEKGKQQDTVLGGRALSNRQHAS

Variants of: B1
Assay: LUMIER: Protein A-ATGL variant and firefly luciferase-partner co-expressed in HEK293T, lysates immunoprecipitated on IgG-coated plates, co-precipitated partner measured as luciferase luminescence
Settings: with G0S2 (G0/G1 switch protein 2), transient co-transfection, IgG-coated LUMITRAC plates, 2 h at 4 °C, three PBS washes, Bright-Glo luciferase reagent, triplicates per assay, two …, scale: log2 fold change of co-immunoprecipitated luminescence relative to wild-type ATGL within each experiment

Variant	screen value (parent: 0.26, not graded)	screen value (parent: 0.56, not graded)
chain 1 S158E	-0.0501	0.0613
chain 1 R95K	0.105	0.0501
chain 1 V127L	0.199	0.376
chain 1 R113K	0.927	-0.0371
chain 1 R113L	-0.0286	-0.429
chain 1 P258L	-1.36	-1.64
chain 1 R163K	0.411	0.335
chain 1 R351L	0.121	0.273
chain 1 Q396A	-1.32	-1.71
chain 1 Y415A	-0.00445	-0.27
chain 1 Q140A	0.0979	0.734
chain 1 Q140K	0.195	-0.175
chain 1 S87E	-0.559	-1.39
chain 1 S87A	-0.675	-0.33

Other lines, results leading:

screen value (parent: 0.26, not graded)	screen value (parent: 0.56, not graded)	Variant
-2.18	-2.45	chain 1 P156K
-0.0704	6.88e-05	chain 1 P103K
-0.894	-0.783	chain 1 P86K
0.0368	0.0587	chain 1 T41A
-0.121	0.343	chain 1 S158A
-0.556	-0.22	chain 1 R329E
-0.0587	-0.569	chain 1 R95L
-0.922	-1.29	chain 1 S106K
-2.09	-2.9	chain 1 V328A
